How the values were obtained:
GST-AtPum2 PUM-HD [1] = target: T1, GST-AtPum2 PUM-HD (Arabidopsis thaliana, UniProt Q9ZW06 614-963); assay: EMSA; estimated from free RNA; complex unstable, no accurate Kd; 10 mM HEPES pH 7.4, 1 mM EDTA, 50 mM KCl, 1 mM DTT, 0.01% BSA, 0.01% Tween 20; room temperature 1 h; 6% native gel run at 4 C; conditions: protein: recombinant; tags: N-terminal GST (pGEX-6P-1); label: 5' 32P; single strand, 19 nt
T1 sequence: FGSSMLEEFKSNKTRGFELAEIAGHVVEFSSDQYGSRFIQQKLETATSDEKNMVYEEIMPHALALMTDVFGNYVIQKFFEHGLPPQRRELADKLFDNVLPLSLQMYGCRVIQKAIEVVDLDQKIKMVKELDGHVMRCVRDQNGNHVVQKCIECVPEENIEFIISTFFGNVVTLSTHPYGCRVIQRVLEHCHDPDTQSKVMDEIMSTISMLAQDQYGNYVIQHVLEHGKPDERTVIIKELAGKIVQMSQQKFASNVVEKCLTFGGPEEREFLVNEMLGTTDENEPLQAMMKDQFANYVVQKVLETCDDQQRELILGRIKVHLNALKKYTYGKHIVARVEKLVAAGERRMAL

GST-AtPum2 PUM-HD [2] = target: T1, GST-AtPum2 PUM-HD; assay: EMSA; apparent Kd; 200 pM labelled RNA; 10 mM HEPES pH 7.4, 1 mM EDTA, 50 mM KCl, 1 mM DTT, 0.01% BSA, 0.01% Tween 20; room temperature 1 h; 6% native gel run at 4 C; conditions: protein: recombinant; tags: N-terminal GST (pGEX-6P-1); label: 5' 32P; single strand, 19 nt

Row | Binder | Kd (GST-AtPum2 PUM-HD [1]) [nM] | Kd (GST-AtPum2 PUM-HD [2]) [nM]
1 | CCAGAAUUUUAUAUAUUCG (ssRNA) [mutant NRE1 (G to U)] | ~354 | 
2 | CCAGAAUUGUAUAUAUUCG (ssRNA) [wildtype NRE1 (hunchback NRE1 BoxB)] |  | 10.6
